VNA titer data for three molecules are collected here from patent US20190359693A1 (Janssen / Centocor, published 2019).

Like-named read-outs stand apart in the source and are kept apart here.

Common to all, as to test: cell-based or functional assay
Experiment [1] has as its target HA of H3N2 A/HK/1/68 (D375N, I395V) (influenza A virus).
The target of experiment [2] is HA of H3N2 A/HK/1/68 (E443K) (influenza A virus).
The target of experiment [3] is HA of H3N2 A/HK/1/68 (G379R) (influenza A virus).
Experiment [4] deals with HA of H3N2 A/HK/1/68 (I395V) (influenza A virus).
In experiment [5] the target is HA of H3N2 A/HK/1/68 (L331I, E443K) (influenza A virus).
In experiment [6] the target is HA of H3N2 A/HK/1/68 (N85, E443K) (influenza A virus).
Experiment [7] has as its target HA of H3N2 A/HK/1/68 (R201G, L331I, E443K) (influenza A virus).
The target in experiment [8] is HA of H3N? A/Env/MPJ193/09 (influenza A virus).
For experiment [9] the target is unchanged. The source holds these as a separate data set.

B1: SD1046 (VHH)
VHH: EVQLVESGGGLVQAGDSLRISCAASGRTLSIYSMGWFRQAPGKEREFVATIGWNSGRTFYPDSLKGRFTISRDNARNTLYLQMNNLRPEDTAVYYCAAAKGPLRLSSQADYWGQGTQVTVSS
As for B1, the VNA titer in [1] was over 1000 nM; in experiment [2] it was 202 nM; in [3], 571 nM; in experiment [4], over 1000 nM; in experiment [5], 202 nM; in experiment [6], 202 nM. Moreover, in experiment [7], the VNA titer came out at 339 nM.

B2: SD1038 (VHH)
VHH: EVQLVESGGGLVQPGGSLRLSCAVSISIFDIYAMDWYRQAPGKQRDLVATSFRDGSTNYADSVKGRFTISRDNAKNTLYLQMNSLKPEDTAVYLCHVSLYRDPLGVAGGMGVYWGKGALVTVSS
notes: llama sdAb
Consider B2, for which the VNA titer in experiment [8] was 185 nM.

B3: SD1036 (VHH)
VHH: EVQLVESGGGLVQAGGSLKLSCAASGRTYAMGWFRQAPGKEREFVAHINALGTRTYYSDSVKGRFTISRDNAKNTEYLEMNNLKPEDTAVYYCTAQGQWRAAPVAVAAEYEFWGQGTQVTVSS
notes: llama sdAb
Take B3: the VNA titer in [1], in [2], in experiment [3], in [4], in [5] and in experiment [6] was over 1000 nM throughout. In addition, the VNA titer was over 1000 nM in experiment [7] and 41 nM in [9].
